Experimental data published in FireProtDB (doi:10.1016/j.jmb.2006.03.027).
Several values for one entry are separate records, joined by “and”; a condition that tells them apart may be missing. Equal entries are not always repeated.

Details: Saccharomyces cerevisiae (strain ATCC 204508 / S288c); pH 7; Thermal; CD; potassium phosphate 25 mM; reversible: Yes; whole UniProt chain shown

B1: GrpE protein homolog, mitochondrial wild type, P38523 (protein)
chain: MRAFSAATVRATTRKSFIPMAPRTPFVTPSFTKNVGSMRRMRFYSDEAKSEESKENNEDLTEEQSEIKKLESQLSAKTKEASELKDRLLRSVADFRNLQQVTKKDIQKAKDFALQKFAKDLLESVDNFGHALNAFKEEDLQKSKEISDLYTGVRMTRDVFENTLRKHGIEKLDPLGEPFDPNKHEATFELPQPDKEPGTVFHVQQLGFTLNDRVIRPAKVGIVKGEEN
- Tm: 53.2 °C and 52.5 °C and 52.4 °C
